# Columns and labels:
# [1] = target: VAR2CSA ectodomain (residue 1-2630) of Plasmodium falciparum 3D7 (Plasmodium falciparum 3D7); test: SEC
# [2] = target: VAR2CSA ectodomain (residue 1-2630) of Plasmodium falciparum 3D7 (Plasmodium falciparum 3D7); test: cross-linking
substance,measurement,setting,value
VAR2CSA ectodomain (residue 1-2630) of Plasmodium falciparum 3D7 (domain or fragment),stoichiometry N,[1],2
same,stoichiometry N,[2],2

# From doi:10.1101/2021.07.06.451098
